Publication PMC5837747

Target: HA-14-3-3β (UniProt P31946)
Test: GFP co-immunoprecipitation, HA blot, densitometry

## mouse CdGAP (mCdGAP, GFP-CdGAP) (from UniProt A6X8Z5) S1093A/S1163A
reference: wild type (unstimulated and PMA-treated cells), sites S1093,S1163
  binding against the reference: weaker

## mouse CdGAP (mCdGAP, GFP-CdGAP) (from UniProt A6X8Z5) S1093A/S1163A double mutant
reference: S1093A single mutant, sites S1163
  binding against the reference: weaker
reference: S1163A single mutant, sites S1093
  binding against the reference: weaker
